The results in this text go back to patent publication US20170166624A1 (University of Texas, published 2017).

Values joined by “and” are separate entries in the source; they are usually repeats but may differ in a detail not shown here. Identical values can stand only once.

The target in data set [1] is T1, TGF-β2 K25R I92V K94R (TGF-β2TM) (UniProt P61812 303-414, K25R; I92V; K94R).
T1 construct: mature
T1 sequence (looked up): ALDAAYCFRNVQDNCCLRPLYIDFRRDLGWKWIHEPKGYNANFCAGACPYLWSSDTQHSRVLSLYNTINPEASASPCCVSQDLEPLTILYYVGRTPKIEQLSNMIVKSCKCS
Nature of the data set: SPR, receptor injected over immobilized TGF-β2TM. The procedure: (§1) FIG. 2. RII (R) and RIII (EU) form a 1:1:1 complex with TGF-β homodimers. (a) SPR sensorgrams in which increasing concentrations of RII and RIII were injected over a SPR sensor surface with immobilized TGF-β2TM. Mass normalized sensorgrams are shown in panels on the left. Plots of the mass normalized equilibrium response (Req) as a function of receptor concentration ([Receptor]), along with fits to Req=(Rₘₐₓ×[Receptor])/(Kd+[Receptor]), are shown on the right.
The TGF-β type III receptor binds TGF-β dimers with 1:1 stoichiometry. This was shown by comparing the maximal mass-normalized SPR response as increasing concentrations of the purified TGF-β type II receptor ectodomain (RII) and purified TGF-β type III receptor ectodomain (RIII) were injected over immobilized TGF-β2 K25R I92V K94R (TGF-β2TM), a variant of TGF-β2 that binds RII with high affinity (Baardsnes et al, 2009, Biochemistry, 48, 2146-2155; De Crescenzo et al, 2006, J Mol Biol, 355, 47-62).

For data set [2], the target named is T1, TGF-β2 K25R I92V K94R (TGF-β2TM). Nature of the data set: SDS-PAGE densitometry of the SEC-isolated complex (TGF-β2TM 51.6 pmol). From the text: RII:RIII:TGF-β2TM form a stable non-disassociating 1:1:1 complex in solution. […] The mixture was applied to a Superdex 200 size exclusion chromatography column and the UV absorbance of the column eluate at 280 nm was monitored. […] To determine the stoichiometry of the complex, a sample of the isolated RII:RIII:TGFβ2-TM complex was run on an SDS-PAGE gel along with known amounts of the individual components (FIG. 3d).

The target is the same in data set [3]. Nature of the data set: SPR, RII injected over immobilized TGF-β2TM with or without 80 nM RIII (competitor RIII). The procedure: as §1
The TGF-β type III receptor potentiates the binding of the TGF-β type II receptor, but reduces its binding stoichiometry to one per TGF-β homodimer. This was shown by performing SPR experiments in which increasing concentrations of RII were injected over immobilized TGF-β2TM in the absence or presence of a saturating concentration of RIII (80 nM) (FIG. 2b).
On the technique in general: Surface plasmon resonance follows binding to a sensor surface in real time, without labels.

Another data set deals with T2, TGF-β3 (UniProt P10600 301-412).
T2 sequence (looked up): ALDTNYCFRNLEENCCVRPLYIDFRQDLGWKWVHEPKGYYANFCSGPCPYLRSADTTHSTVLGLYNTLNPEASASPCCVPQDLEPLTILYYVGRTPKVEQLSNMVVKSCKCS
Nature of the data set: SPR competition, receptor with 0.8 nM TGF-β3 over immobilized 1D11. The protocol:
FIG. 6. SPR competition binding data in which increasing concentrations of RII (R), RIII (EU), and RII-RIII (REU) were pre-incubated with 0.8 nM TGF-β3 for 16 h and then injected over a high-density (20000 RU) SPR surface with the TGF-β monoclonal antibody 1D11. Data is presented in terms of the initial slope (which is directly proportional to the concentration of the free TGF-β3 concentration) as a function of the competitor (R, EU, or REU) concentration. Two independent measurements were performed for each of the receptor constructs studied (designated by −a and −b in the legend).
The initial slope of these sensorgrams, which is a linear function of the free TGF-β3 concentration, was then plotted as a function of the concentration of RII, RIII (EU), or RII-RIII (REU) (FIG. 6).

B1: purified TGF-β type III receptor ectodomain (RIII) (receptor)
chain: CELSPINASHPVQALMESFTVLSGCASRGTTGLPREVHVLNLRSTDQGPGQRQREVTLHLNPIASVHTHHKPIVFLLNSPQPLVWHLKTERLAAGVPRLFLVSEGSVVQFPSGNFSLTAETEERNFPQENEHLLRWAQKEYGAVTSFTELKIARNIYIKVGEDQVFPPTCNIGKNFLSLNYLAEYLQPKAAEGCVLPSQPHEKEVHIIELITPSSNPYSAFQVDIIVDIRPAQEDPEVVKNLVLILKCKKSVNWVIKSFDVKGNLKVIAPNSIGFGKESERSMTMTKLVRDDIPSTQENLMKWALDNGYRPVTSYTMAPVANRFHLRLENNEEMRDEEVHTIPPELRILLDPDHPPALDNPLFPGEGSPNGGLPFPFPDIPRRGWKEGEDRIPRPKQPIVPSVQLLPDHREPEEVQGGVDIALSVKCDHEKMVVAVDKDSFQTNGYSGMELTLLDPSCKAKMNGTHFVLESPLNGCGTRHRRSTPDGVVYYNSIVVQAPSPGDSAGWPDGYEDLEAGDNGFPGDGDEGETAPLSRAGVVVFNCSLRQLRNPSGFQGQLDGNATFNMELYNTDLFLVPSPGVFSVAENEHVYVEVSVTKADQDLGFAIQTCFLSPYSNPDRMSDYTIIENICPKDDSVKFYSSKRVHFPIPHAEVDKKRFSFLFKSVFNTSLLFLHCELTLCSRKKGSLKLPRCVTPDDACTSLDATMIWTMMQNKKTFTKPLAVVLQVD
notes: EU was made in CHO Lec 3.2.8.1 cells and purified on NiNTA, which implies a His tag that is not explicitly stated for EU; also called EU; RIII (EU)
As to B1, the “maximal mass-normalized response relative to that of RII” value in data set [1] is ~0.5 fold (ratio to RII). Besides, the “amount in the isolated RII:RIII:TGF-β2TM complex” value in data set [2] stood at 62.4 pmol.

B2: purified TGF-β type II receptor ectodomain (RII) (receptor)
chain: NGAVKFPQLCKFCDVRFSTCDNQKSCMSNCSITSICEKPQEVCVAVWRKNDENITLETVCHDPKLPYHDFILEDAASPKCIMKEKKKPGETFFMCSCSSDECNDNIIFSEEYNTSNPD
Consider B2, for which the “amount in the isolated RII:RIII:TGF-β2TM complex” value in data set [2] was 61.8 pmol. Moreover, in data set [3], the “fold reduction of the maximal mass normalized binding response in the presence of 80 nM RIII” value amounted to 2 fold.

B3: RII-RIII (REU) fusion (other)
chain: AAANGAVKFPQLCKFCDVRFSTCDNQKSCMSNCSITSICEKPQEVCVAVWRKNDENITLETVCHDPKLPYHDFILEDAASPKCIMKEKKKPGETFFMCSCSSDECNDNIIFSEEYNTSNPDGLGPVESSPGHGLDTAAACELSPINASHPVQALMESFTVLSGCASRGTTGLPREVHVLNLRSTDQGPGQRQREVTLHLNPIASVHTHHKPIVFLLNSPQPLVWHLKTERLAAGVPRLFLVSEGSVVQFPSGNFSLTAETEERNFPQENEHLLRWAQKEYGAVTSFTELKIARNIYIKVGEDQVFPPTCNIGKNFLSLNYLAEYLQPKAAEGCVLPSQPHEKEVHIIELITPSSNPYSAFQVDIIVDIRPAQEDPEVVKNLVLILKCKKSVNWVIKSFDVKGNLKVIAPNSIGFGKESERSMTMTKLVRDDIPSTQENLMKWALDNGYRPVTSYTMAPVANRFHLRLENNEEMRDEEVHTIPPELRILLDPDHPPALDNPLFPGEGSPNGGLPFPFPDIPRRGWKEGEDRIPRPKQPIVPSVQLLPDHREPEEVQGGVDIALSVKCDHEKMVVAVDKDSFQTNGYSGMELTLLDPSCKAKMNGTHFVLESPLNGCGTRHRRSTPDGVVYYNSIVVQAPSPGDSAGWPDGYEDLEAGDNGFPGDGDEGETAPLSRAGVVVFNCSLRQLRNPSGFQGQLDGNATFNMELYNTDLFLVPSPGVFSVAENEHVYVEVSVTKADQDLGFAIQTCFLSPYSNPDRMSDYTIIENICPKDDSVKFYSSKRVHFPIPHAEVDKKRFSFLFKSVFNTSLLFLHCELTLCSRKKGSLKLPRCVTPDDACTSLDATMIWTMMQNKKTFTKPLAVVLQVD
For the molecule B3, the “decrease of EC50 relative to RII or RIII (EU)” value in the data set with TGF-β3 is ≥ 0.5 log units and ~3 fold.
